This note sets out measurements from patent US20110229482A1, “Method of inhibiting infection by HCV, other flaviviridae viruses, and any other virus that complexes to low density lipoprotein or to very low density lipoprotein in blood by preventing viral entry into a cell” (priority 2000, published 2011).

This assay addresses LDL receptor (human), on cells (human) (UniProt P01130). Description: cell-based or functional assay.

Substance “HDL fraction of HCV-infected serum (HCV-HDL)” yielded an Endocytosis of 5 µg DiI-labeled fraction, mean fluorescence (log scale) (mean fluorescence (log scale)) of 1.88. Still for that read-out and setting: next, “LDL fraction of HCV-infected serum (HCV-LDL)”: 9.98; “VLDL fraction of HCV-infected serum (HCV-VLDL)”: 8.49. Turning to “high density lipoprotein (HDL) from normal serum”, the competitive inhibition of endocytosis of HCV by HepG2, G4 and E11 cells is > 200 µg/mL. For the substance “low density lipoprotein (LDL) from normal serum, P04114 1-4563”, the Uptake of LDL by cultured cells, mean fluorescence (G4, lipoprotein deficient medium, DiI-LDL) (mean fluorescence) worked out at 16; the Uptake of LDL by cultured cells, mean fluorescence (G4, routine medium, DiI-LDL) (mean fluorescence) worked out at 4; the Uptake of LDL by cultured cells, mean fluorescence (HepG2, routine medium, DiI-LDL) (mean fluorescence) is 16.
